The text below walks through data of patent publication US20250154272A1 (Astellas, published 2025).

B1: anti-CLDN4 (hKM3900)/anti-CD137 scFv bispecific antibody hKM3900_tA2-32LH_S (bispecific antibody)
heavy (part 1 of 2): EVQLVQSGAEVKKPGASVKISCKASGYTFTDYYMNWVRQAPGQGLEWMGDVVPNNGVPTYNQKFKGRVTITADKSTSTAYMELRSLRSEDTAVYYCARPHYYYAGRSGAMDYWGQGTLVTVSS
heavy (part 2 of 2): QSVLTQPPSASGTPGQRVTISCSGSSSNIGSNTVNWYQQFPGTAPKLLIYSNNQRPSGVPDRFSGSKSGTSASLAISGLQSEDEADYYCAGWDDSLNGPVFGGGTKLTVLGGGGGSGGGGSGGGGSGGGGSQVQLQESGPGLVKPSETLSLTCTVSGGSISGYYWSWIRQPPGKGLEWIGYIYYSGFTNYNPSLKSRVTISVDTSKNQFSLKLSSVTAADTAVYYCTRDHSHYYYMDVWGQGTTVTVSS
light: DIQLTQSPSSLSASVGDRVTITCTASSTVSSTYLHWYQQKPGKAPKLLIYSTSNLASGVPSRFSGSGSGTDYTLTISSLQPEDFATYYCHQYHRSPPTFGQGTKLEIKRTVAAPSVFIFPPSDEQLKSGTASVVCLLNNFYPREAKVQWKVDNALQSGNSQESVTEQDSKDSTYSLSSTLTLSKADYEKHKVYACEVTHQGLSSPVTKSFNRGEC
notes: scFv at the heavy chain C-terminus; not shown: human IgG1 heavy chain constant region; mutation positions by EU index; GS linker
B2: anti-CLDN4 (hKM3900)/anti-CD137 scFv bispecific antibody hKM3900_tA2-48_S (bispecific antibody)
heavy (part 1 of 2): EVQLVQSGAEVKKPGASVKISCKASGYTFTDYYMNWVRQAPGQGLEWMGDVVPNNGVPTYNQKFKGRVTITADKSTSTAYMELRSLRSEDTAVYYCARPHYYYAGRSGAMDYWGQGTLVTVSS
heavy (part 2 of 2): QVQLQESGPGLVKPSETLSLTCTVSGGSISSYYWSWIRQPPGKCLEWIGYIYYSGYTNYNPSLKSRVNISVDTSQNQFSLKLNSLTAADTAVYYCARTHSYYYGMDVWGQGTTVTVSSGGGGSGGGGSGGGGSQSVLTQPPSASGTPGQRVTISCSGSSSNIGNNPVNWYQQFPGTAPKLLIYSNNQRPSGVPDRFSGSKSGTSASLAISGLQSEDEADYYCEAWDDSLNGPVFGCGTKLTVLG
light: DIQLTQSPSSLSASVGDRVTITCTASSTVSSTYLHWYQQKPGKAPKLLIYSTSNLASGVPSRFSGSGSGTDYTLTISSLQPEDFATYYCHQYHRSPPTFGQGTKLEIKRTVAAPSVFIFPPSDEQLKSGTASVVCLLNNFYPREAKVQWKVDNALQSGNSQESVTEQDSKDSTYSLSSTLTLSKADYEKHKVYACEVTHQGLSSPVTKSFNRGEC
notes: as for B1
B3: anti-CLDN4 (hKM3900)/anti-CD137 scFv bispecific antibody hKM3900_3-34-j6_S (bispecific antibody)
heavy (part 1 of 2): EVQLVQSGAEVKKPGASVKISCKASGYTFTDYYMNWVRQAPGQGLEWMGDVVPNNGVPTYNQKFKGRVTITADKSTSTAYMELRSLRSEDTAVYYCARPHYYYAGRSGAMDYWGQGTLVTVSS
heavy (part 2 of 2): EVQLLESGGGLVQPGESLRLSCKAFGYTFTNHHINWVRQAPGKCLEWVGYINPYNDYTTFNDKFKDRFTLSVDKSKSTAYLQMNSLRAEDTAVYYCARTWGHWYFDLWGQGTLVTVSSGGGGSGGGGSGGGGSNIQMTQSPSSLSASVGDRVTITCRASQSVSSNLAWYQQKPGKAPKLLIYDSSTRATGVPSRFSGSGSGTDFTLTISSLQPEDFATYYCQQYNNWPPWTFGCGTKLEIKR
light: DIQLTQSPSSLSASVGDRVTITCTASSTVSSTYLHWYQQKPGKAPKLLIYSTSNLASGVPSRFSGSGSGTDYTLTISSLQPEDFATYYCHQYHRSPPTFGQGTKLEIKRTVAAPSVFIFPPSDEQLKSGTASVVCLLNNFYPREAKVQWKVDNALQSGNSQESVTEQDSKDSTYSLSSTLTLSKADYEKHKVYACEVTHQGLSSPVTKSFNRGEC
notes: scFv at the heavy chain C-terminus; Fc mutation P331S with L234A and L235A; not shown: human IgG1 heavy chain constant region; mutation positions by EU index; GS linker
B4: anti-CLDN4 (hKM3900)/anti-CD137 scFv bispecific antibody hKM3900_tA2-73_S (bispecific antibody)
heavy (part 1 of 2): EVQLVQSGAEVKKPGASVKISCKASGYTFTDYYMNWVRQAPGQGLEWMGDVVPNNGVPTYNQKFKGRVTITADKSTSTAYMELRSLRSEDTAVYYCARPHYYYAGRSGAMDYWGQGTLVTVSS
heavy (part 2 of 2): QVQLQESGPGLVKPSETLSLTCTVSGGSISSYYWTWIRQPPGKCLELVGYIYYSGYTSYNPSLKSRVTISIDTSKNQFSLQLNSVTAADTAVYFCARDDYGGNGYYGVDVWGQGTTVTVSSGGGGSGGGGSGGGGSQSVLTQPPSASGTPGQRVTISCSGSSSNIGNNPVNWYRQLPGTAPKLLIYSNNQRPSGVPDRFSGSKSGTSASLAISGLQSEDEADYYCAAWDDSLNGWVFGCGTKLTVLG
light: DIQLTQSPSSLSASVGDRVTITCTASSTVSSTYLHWYQQKPGKAPKLLIYSTSNLASGVPSRFSGSGSGTDYTLTISSLQPEDFATYYCHQYHRSPPTFGQGTKLEIKRTVAAPSVFIFPPSDEQLKSGTASVVCLLNNFYPREAKVQWKVDNALQSGNSQESVTEQDSKDSTYSLSSTLTLSKADYEKHKVYACEVTHQGLSSPVTKSFNRGEC
notes: as for B1

The assay deals with T1, human CD137-His tag protein (R&D Systems, 9220-4B) (human, UniProt Q07011 24-186).
T1 construct: Bought protein; not shown: His tag of the bought protein
In words: ELISA, human CD137-His tag protein immobilized on the plate, anti-human IgG Fc-HRP, A450-A570.
In general, EC50 (read off the curve) refers to the concentration that produces a half-maximal response. Read a low EC50 (read off the curve) as greater potency. For B1, the half-maximal effective concentration (EC50 (read off the curve)) was approximately 10 ng/mL.
The same measure for B2: approximately 10 ng/mL.
The same measure for B3: approximately 10 ng/mL; for B4: approximately 10 ng/mL.
